Publication PMC6458996, “Sostdc1: A soluble BMP and Wnt antagonist that is induced by the interaction between myeloma cells and osteoblast lineage cells” (Bone, 2019)

T1: recombinant murine Sostdc1 (sclerostin domain containing 1) (mouse, UniProt Q9CQN4 24-206)
T1 construct: sclerostin domain containing 1 (Sostdc1), murine recombinant protein; also called recombinant Sostdc1; murine recombinant Sostdc1
T1 sequence (looked up): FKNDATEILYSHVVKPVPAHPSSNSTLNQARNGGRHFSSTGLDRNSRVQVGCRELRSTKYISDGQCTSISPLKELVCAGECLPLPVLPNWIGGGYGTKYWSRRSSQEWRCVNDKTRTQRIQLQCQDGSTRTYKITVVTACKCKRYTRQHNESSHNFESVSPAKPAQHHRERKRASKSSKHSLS

B1: bone morphogenetic protein 2 (BMP2) (ligand, UniProt P12643 283-396, looked up)
chain: QAKHKQRKRLKSSCKRHPLYVDFSDVGWNDWIVAPPGYHAFYCHGECPFPLADHLNSTNHAIVQTLVNSVNSKIPKACCVPTELSAISMLYLDENEKVVLKNYQDMVVEGCGCR
notes: BMP2, recombinant protein; also called BMP2 ligand protein
B2: bone morphogenetic protein 7 (BMP7) (ligand, UniProt P18075 293-431, looked up)
chain: STGSKQRSQNRSKTPKNQEALRMANVAENSSSDQRQACKKHELYVSFRDLGWQDWIIAPEGYAAYYCEGECAFPLNSYMNATNHAIVQTLVHFINPETVPKPCCAPTQLNAISVLYFDDSSNVILKKYRNMVVRACGCH
notes: BMP7, recombinant protein; also called ligand BMP7 protein

Assays:
[1] = biological target: recombinant murine low density lipoprotein receptor-related protein 6 (LRP6) (mouse) (UniProt O88572); assay: BLI; Amine reactive 2nd generation (AR2G) biosensors (ForteBio, BLItz); analyte at multiple concentrations from 0 to 100 ug/ml; global fit to a simple 1:1 Langmuir model; which partner was immobilised is not stated outright (the legend speaks of 100 ug/ml of Sostdc1 binding to rmLRP6, BMP2 and BMP7)
[2] = biological target: T1, recombinant murine Sostdc1 (sclerostin …); assay: as above; conditions: both partners purified

Sequence of recombinant murine low density lipoprotein receptor-related protein 6 (LRP6) (mouse) (O88572 20-1613): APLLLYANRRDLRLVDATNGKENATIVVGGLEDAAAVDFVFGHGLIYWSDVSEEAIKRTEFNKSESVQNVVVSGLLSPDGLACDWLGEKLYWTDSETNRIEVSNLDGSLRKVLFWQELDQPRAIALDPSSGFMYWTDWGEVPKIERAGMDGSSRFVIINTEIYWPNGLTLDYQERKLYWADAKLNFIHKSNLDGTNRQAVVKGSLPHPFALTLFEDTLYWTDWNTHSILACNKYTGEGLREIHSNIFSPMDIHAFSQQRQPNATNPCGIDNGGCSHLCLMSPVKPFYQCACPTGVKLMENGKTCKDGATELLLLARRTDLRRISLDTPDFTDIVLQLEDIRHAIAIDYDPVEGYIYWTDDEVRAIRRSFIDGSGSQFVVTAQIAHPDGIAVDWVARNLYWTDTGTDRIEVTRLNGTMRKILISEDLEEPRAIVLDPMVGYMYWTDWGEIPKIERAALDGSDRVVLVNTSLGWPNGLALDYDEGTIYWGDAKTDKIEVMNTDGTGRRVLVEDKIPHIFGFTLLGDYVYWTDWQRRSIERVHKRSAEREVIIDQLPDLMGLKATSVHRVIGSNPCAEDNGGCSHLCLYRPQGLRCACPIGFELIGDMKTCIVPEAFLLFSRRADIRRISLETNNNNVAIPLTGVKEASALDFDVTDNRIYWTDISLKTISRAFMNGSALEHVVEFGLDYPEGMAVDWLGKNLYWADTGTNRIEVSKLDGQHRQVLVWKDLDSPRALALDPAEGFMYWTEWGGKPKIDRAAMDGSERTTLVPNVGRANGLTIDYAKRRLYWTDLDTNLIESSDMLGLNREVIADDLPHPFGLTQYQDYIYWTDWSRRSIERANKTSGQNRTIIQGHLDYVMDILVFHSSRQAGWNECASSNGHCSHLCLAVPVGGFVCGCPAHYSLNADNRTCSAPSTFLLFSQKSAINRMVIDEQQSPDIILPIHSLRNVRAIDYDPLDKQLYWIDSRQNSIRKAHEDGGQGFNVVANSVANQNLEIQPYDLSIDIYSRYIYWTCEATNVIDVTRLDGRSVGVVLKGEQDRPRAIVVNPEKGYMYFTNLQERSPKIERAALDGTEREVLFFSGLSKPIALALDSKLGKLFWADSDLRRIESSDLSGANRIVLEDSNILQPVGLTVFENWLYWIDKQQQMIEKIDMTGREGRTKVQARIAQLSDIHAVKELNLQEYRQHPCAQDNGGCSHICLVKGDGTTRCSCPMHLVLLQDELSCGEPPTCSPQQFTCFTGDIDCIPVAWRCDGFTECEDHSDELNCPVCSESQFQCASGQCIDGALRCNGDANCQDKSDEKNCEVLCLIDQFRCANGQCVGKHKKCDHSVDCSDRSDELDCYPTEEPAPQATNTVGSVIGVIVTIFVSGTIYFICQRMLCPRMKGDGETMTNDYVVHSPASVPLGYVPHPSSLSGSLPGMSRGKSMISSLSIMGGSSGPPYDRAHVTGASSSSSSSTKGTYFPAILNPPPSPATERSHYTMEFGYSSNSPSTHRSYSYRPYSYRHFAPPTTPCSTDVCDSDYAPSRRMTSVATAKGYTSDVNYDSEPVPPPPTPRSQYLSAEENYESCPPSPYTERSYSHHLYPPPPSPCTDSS

Molecule	Kd [1] [nM]	Kd [2] [nM]
recombinant murine Sostdc1 (sclerostin domain containing 1) (from UniProt Q9CQN4 24-206) (natural protein)	0.85	–
B1	–	9.57
B2	–	< 0.001
